Source: patent US20260191907A1 (INSTITUT CURIE, published 2026)

T1: Recombinant FGFR3 (G&P Biosciences) (UniProt P22607 23-375, limits assumed)
T1 construct: Immobilised on the SPR chip
T1 sequence (looked up): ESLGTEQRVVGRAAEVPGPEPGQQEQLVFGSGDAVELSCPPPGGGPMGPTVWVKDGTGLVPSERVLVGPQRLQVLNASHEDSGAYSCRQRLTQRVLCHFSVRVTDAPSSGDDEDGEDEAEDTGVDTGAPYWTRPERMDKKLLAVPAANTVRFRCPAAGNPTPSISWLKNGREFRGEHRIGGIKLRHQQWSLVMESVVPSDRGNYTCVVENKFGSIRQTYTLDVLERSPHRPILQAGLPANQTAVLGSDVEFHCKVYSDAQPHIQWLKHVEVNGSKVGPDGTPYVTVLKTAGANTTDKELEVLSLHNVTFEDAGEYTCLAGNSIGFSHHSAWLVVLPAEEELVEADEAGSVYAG

T2: Recombinant FGFR4 (G&P Biosciences) (human, UniProt P22455 22-369)
T2 construct: Bought protein; the SPR method says only 'Recombinant; also called rFGFR4; extracellular FGFR4
T2 sequence: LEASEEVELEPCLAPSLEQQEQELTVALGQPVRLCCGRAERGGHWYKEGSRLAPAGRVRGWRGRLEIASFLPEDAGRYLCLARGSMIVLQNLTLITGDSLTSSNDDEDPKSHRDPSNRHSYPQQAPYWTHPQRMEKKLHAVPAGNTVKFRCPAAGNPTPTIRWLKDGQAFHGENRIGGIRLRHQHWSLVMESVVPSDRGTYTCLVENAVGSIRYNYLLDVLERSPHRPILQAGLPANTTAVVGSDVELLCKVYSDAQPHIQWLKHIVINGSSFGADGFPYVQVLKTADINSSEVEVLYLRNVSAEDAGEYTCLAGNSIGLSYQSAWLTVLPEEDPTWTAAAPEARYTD


Legend:
[1] = target: T1, Recombinant FGFR3 (G&P Biosciences); test: SPR, FGFR3 immobilised, nanobody as analyte at five concentrations
Protocol: Single cycle kinetics analysis was performed with the BIAcore® T200 instrument (GE Healthcare) on CMD200M sensor chips (XanTec bioanalytics GmbH) activated with a mixture of 300 mM NHS (N-hydroxysuccinimide) and 50 mM EDC (N-ethyl-N′-(dimethylaminopropyl) carbodiimide). Recombinant FGFR1, FGFR2, FGFR3 and FGFR4 (G&P Biosciences) were immobilized on the activated biosensors (800 to 12′000 RU; 1 RU=1 pg/mm²) followed by a blocking step with 1M ethanolamine. One flow channel per chip was used as a reference to provide background corrections. The nanobodies were injected at 5 different concentrations followed by a dissociation phase. Koff-rates were determined from a final dissociation step after the last injection. The measurements with FGFR4 were performed for each nanobody on freshly immobilized protein due to strong binding and incomplete dissociation from the surface. Immobilization flow rate was 5 μl/min and binding studies were performed at 30 μl/min. Binding parameters were determined with the heterogeneous ligand model fit of the BIAevaluation software. The black curves represent the measured data and red curves show the performed fit analysis.
To determine the binding affinity of the nanobodies to FGFR4, we performed surface plasmon resonance (SPR) spectroscopy with recombinant FGFR4. As already mentioned above, FGFR1 and FGFR2 are expressed on Rh4-FR4ko cells and flow cytometry analysis indicated no binding of the nanobodies to the cells. To further confirm FGFR4-specificity, we included also affinity measurements with recombinant FGFR1, FGFR2 and FGFR3. Nanobodies A8, B1, B5, F8, and mCh were injected in five different concentrations on a FGFR coated chip. Except for the negative control mCh, calculated KD values for FGFR4 binding were in the nano- and picomolar range (FIG. 3; Table 2). Affinity parameters could not be fitted with a 1:1 binding model and best fits were obtained with the heterogeneous ligand model of the BIAevaluation software resulting in two KD values for each candidate.

[2] = target: T3, FGFR2 expressed on Rh4-FR4ko cells (UniProt P21802 22-821, limits assumed); test: flow cytometry on Rh4-FR4ko cells, which express FGFR1 and FGFR2
T3 construct: whole, on cells; also called FGFR2 on Rh4 cells
T3 sequence (P21802 22-821 limits assumed): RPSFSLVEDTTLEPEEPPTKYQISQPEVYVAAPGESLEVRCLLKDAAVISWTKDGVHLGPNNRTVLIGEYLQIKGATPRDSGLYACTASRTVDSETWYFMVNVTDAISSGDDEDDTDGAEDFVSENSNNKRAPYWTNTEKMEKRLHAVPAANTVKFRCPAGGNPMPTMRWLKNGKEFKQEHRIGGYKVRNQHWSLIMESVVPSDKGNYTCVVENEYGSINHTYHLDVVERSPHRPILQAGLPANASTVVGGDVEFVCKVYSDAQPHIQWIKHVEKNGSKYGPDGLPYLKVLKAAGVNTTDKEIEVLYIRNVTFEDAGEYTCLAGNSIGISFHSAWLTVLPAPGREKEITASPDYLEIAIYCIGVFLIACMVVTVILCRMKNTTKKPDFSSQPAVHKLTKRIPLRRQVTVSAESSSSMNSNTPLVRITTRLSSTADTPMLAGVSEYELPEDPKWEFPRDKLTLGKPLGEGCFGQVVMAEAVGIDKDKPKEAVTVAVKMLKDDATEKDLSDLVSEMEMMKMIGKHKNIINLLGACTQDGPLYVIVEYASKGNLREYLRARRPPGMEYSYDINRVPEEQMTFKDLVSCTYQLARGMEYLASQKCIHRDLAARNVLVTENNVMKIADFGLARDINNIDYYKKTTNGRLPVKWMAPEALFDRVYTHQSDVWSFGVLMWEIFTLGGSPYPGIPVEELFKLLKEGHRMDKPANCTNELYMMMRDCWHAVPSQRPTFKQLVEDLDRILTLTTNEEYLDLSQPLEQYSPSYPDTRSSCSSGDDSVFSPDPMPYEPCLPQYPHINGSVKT
Protocol: The cells were incubated for 1 h with nanobodies at 10 μM (A8, B1, B5, F8, mCh) followed by stimulation of FGFR4 with 50 nM FGF19 for 10 min. Control cells (C) were either not stimulated or stimulated with FGF19 in absence of the nanobodies. The cell lysates were analysed by western blot with anti phospho ERK1/2 antibody. Total Erk1/2 levels are shown as loading control.
Binding validation of selected phages, recombinant nanobodies and decorated liposomes was performed on Rh4-FR4 wt and Rh4-FR4ko cells. Specificity of selected phage clones binding to FGFR4 was determined by flow cytometry in 96-well plates (Becton Dickinson). Cell surface staining of Rh4-FR4 wt or Rh4-FR4ko cells was performed on ice in PBS supplemented with 1% FBS. 80 μL phages+20 μL PBS/1% milk were incubated on 1×10⁵ cells for 1 h on ice. […] Samples were analyzed after two washes by flow cytometry on a MACSQuant® cytometer (Miltenyi) and results were analyzed with FlowJo™ software (BD Biosciences, France). Phages displaying anti-mCherry nanobodies were used as negative control²⁴ and as positive control we used an anti-FGFR4 antibody (BT53, kindly provided by J. Khan lab, NCI, Bethesda, MD). For binding test of recombinant nanobodies, cells were detached with Accutase® (Stemcell Technologies) and washed with PBS. All following steps were performed on ice: 4×10⁵ cells were incubated with nanobody concentrations of 30 μg/ml for 1 h, washed once with PBS and incubated for an additional 30 min with anti His-tag FITC labeled antibody (LS-C57341, LSBioscience, diluted 1:10). The cells were washed once more with PBS and analyzed. Targeting liposomes were added at 0.5 mM final lipid concentration to cells in 96-well plates and incubated for 2 h at 37° C. and 5% CO₂. The cells were washed twice with PBS and detached with Accutase®.
Validation of the binding of recombinant nanobodies to cell-surface expressed FGFR4 was performed with Rh4-FR4 wt and Rh4-FR4ko cells by flow cytometry.

[3] = target: T2, Recombinant FGFR4 (G&P Biosciences); test: SPR (BIAcore T200), single cycle kinetics, FGFR4 amine-immobilised, nanobody as analyte, heterogeneous ligand model, component 2 (koff2); heterogeneous ligand model, component 2 (koff2)
Protocol: FIG. 3: Affinity determination of nanobodies to recombinant protein via surface plasmon resonance spectroscopy. Single cycle kinetics analysis was performed on immobilized FGFR4 through covalent amine binding on the dextran based sensor chip. The analytes A8, B1, B5, F8 and mCh were injected in 5 different concentrations followed by a dissociation phase. A final dissociation step was added after the last injection step to determine Koff rates for the KD calculations. The black curves represent the measured data and red curves show the fit analysis (heterogeneous ligand model) performed with the BIAevaluation software.
Single cycle kinetics analysis was performed with the BIAcore® T200 instrument (GE Healthcare) on CMD200M sensor chips (XanTec bioanalytics GmbH) activated with a mixture of 300 mM NHS (N-hydroxysuccinimide) and 50 mM EDC (N-ethyl-N′-(dimethylaminopropyl) carbodiimide). Recombinant FGFR1, FGFR2, FGFR3 and FGFR4 (G&P Biosciences) were immobilized on the activated biosensors (800 to 12′000 RU; 1 RU=1 pg/mm²) followed by a blocking step with 1M ethanolamine. […] Koff-rates were determined from a final dissociation step after the last injection. […] Binding parameters were determined with the heterogeneous ligand model fit of the BIAevaluation software. The black curves represent the measured data and red curves show the performed fit analysis. […]

Row | Binder | binding result [1] | binding result [2] | koff [3] [s⁻¹]
1 | A8 nanobody (anti-FGFR4 sdAb, NaLi-H1 library) (VHH, also called A8 sdAb; not shown: C-terminal Myc/6xHis-tag and an additional cysteine) VHH: EVQLQASGGGFVQPGGSLRLSCAASGRTYSRDTMGWFRQAPGKEREFVSAISSRHSHTTYYADSVKGRFTISRDNSKNTVYLQMNSLRAEDTATYYCAEWDVFDMHYALPPMWYWGQGTQVTVSS | no binding | – | –
2 | B1 nanobody (anti-FGFR4 sdAb, NaLi-H1 library) (VHH, also called B1 sdAb; not shown: C-terminal Myc/6xHis-tag and an additional cysteine) VHH: EVQLQASGGGFVQPGGSLRLSCAASGYTSRSSAMGWFRQAPGKEREFVSAISDLTGYPYYYADSVKGRFTISRDNSKNTVYLQMNSLRAEDTATYYCAAYQDDKWTYGSQHGKYWGQGTQVTVSS | no binding | no binding (tested: 30 µg/ml) | –
3 | B5 nanobody (anti-FGFR4 sdAb, NaLi-H1 library) (VHH, Recombinant nanobody of about 17 kDa; also called B5 sdAb; not shown: C-terminal Myc/6xHis-tag and an additional cysteine) VHH: EVQLQASGGGFVQPGGSLRLSCAASGRTSWLTTMGWFRQAPGKEREFVSAISSFSSKQGYYADSVKGRFTISRDNSKNTVYLQMNSLRAEDTATYYCAYASYPRHQGNGRWKDFVEYWGQGTQVTVSS | no binding | – | 3.75e-08
4 | F8 nanobody (anti-FGFR4 sdAb, Gimli library) (VHH, Recombinant nanobody of about 17 kDa; also called F8 sdAb; not shown: C-terminal Myc/6xHis-tag and an additional cysteine) VHH: EVQLVESGGGLVQPGGSLRLSCAASGTGYALDDMGWVRQAPGKGLEWVSAISDDESMADYYADSVKGRFTISRDNSKNTVYLQMNSLRAEDTAVYYCASYKEYKYQSGHHYFAYRGQGTLVTVSS | no binding | no binding (tested: 30 µg/ml) | –
